{"source": "paper PMC3354639", "about": "(Chembiochem, 2012)", "experiment_in_all_cases": "flow cytometry on cells", "key": {"[1]": {"target": "construct 1 cleaved at the Ala-Arg site by OmpT-AR1 (MDM2-polyArg part) (UniProt Q00987 25-125)"}, "[2]": {"target": "autoinhibited-substrate-MDM2-polyArg (construct 1) (UniProt Q00987 25-125)"}, "[3]": {"target": "MDM2-polyArg (construct 2) (UniProt Q00987 17-125)"}}, "note": "No end group written: not given here. *: point of attachment. BODIPY(FL) = CC1=CC(C)=[N+]2C1=Cc1ccc(CCC(=O)*)n1[B-]2(F)F", "data": [{"binder": "{BODIPY(FL)}-GTSFAEYWNLLSP", "note": "[PMI peptide conjugated to the fluorescent dye BODIPY]", "values": [{"measurement": "binding result", "setting": "[1]", "value": "binds"}, {"measurement": "fold reduction in fluorescence against construct 2", "setting": "[2]", "value": "> 10", "unit": "fold"}, {"measurement": "binding result", "setting": "[3]", "value": "binds"}]}]}
